This is an account of results in PMC10711565.

Test in all cases: fluorescence anisotropy
Data set [1] addresses T1, PCBP2 (UniProt Q15366 1-365).
The target of data set [2] is T1, PCBP2. The source holds these as a separate data set.
Data set [3] concerns the target T1, PCBP2. This is another data set of the same source.

Read-outs that look alike come from different tables or passages of the source.

T1 sequence (Q15366 whole entry): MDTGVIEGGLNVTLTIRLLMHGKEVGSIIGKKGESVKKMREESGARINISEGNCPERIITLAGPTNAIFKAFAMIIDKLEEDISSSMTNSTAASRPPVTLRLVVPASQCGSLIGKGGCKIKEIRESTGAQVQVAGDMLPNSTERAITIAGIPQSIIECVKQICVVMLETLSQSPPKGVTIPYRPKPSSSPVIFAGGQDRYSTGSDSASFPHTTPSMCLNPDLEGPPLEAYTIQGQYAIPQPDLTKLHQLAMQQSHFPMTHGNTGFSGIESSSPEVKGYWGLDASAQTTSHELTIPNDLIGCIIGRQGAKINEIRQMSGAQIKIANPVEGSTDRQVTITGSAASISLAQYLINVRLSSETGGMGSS

B1: HCV45 (structured_RNA)
RNA: GCCAGCCCCCUGAUGGGGGCGACACUCCACCAUGAAUCACUCCCC
On to B1, for which the Kd with PCBP2 [1] is 667 ± 34 nM.

B2: HCV45:miR-122 complex (structured_RNA)
RNA 1: B1 RNA
RNA 2: UGGAGUGUGACAAUGGUGUUUG
As for B2, the Kd with PCBP2 [2] was 9.88 ± 1.6 µM.

B3: HCV47 (structured_RNA)
RNA: GCCAGCCCCCUGAUGGGGGCGACACUCCACCAUGAAUCACUCCCCUG
On to B3, for which, in the data set with PCBP2 [3], the binding result is “binds”.

B4: miR-122 (ssRNA)
RNA: UGGAGUGUGACAAUGGUGUUUG
In turn, B4 came in with a Kd with PCBP2 [1] of 5330 ± 470 nM.
